Data taken from paper PMC3417354 (Analytical biochemistry, 2012).
Values belong to the binder of their own block, whether it stands above or below them.

Biological target: human proliferating cell nuclear antigen (PCNA), no tag (human, UniProt P12004 1-261)
Assay: fluorescence polarisation

human proliferating cell nuclear antigen (PCNA), no tag, sequence (P12004 whole entry): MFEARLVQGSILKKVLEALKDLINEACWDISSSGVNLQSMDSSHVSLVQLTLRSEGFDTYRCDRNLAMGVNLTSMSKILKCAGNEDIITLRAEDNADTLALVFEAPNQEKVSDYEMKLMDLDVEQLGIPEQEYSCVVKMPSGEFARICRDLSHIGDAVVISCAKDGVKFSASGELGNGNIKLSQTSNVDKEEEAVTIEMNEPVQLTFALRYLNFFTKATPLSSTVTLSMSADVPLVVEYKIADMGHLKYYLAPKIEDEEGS

IC50: 600 nM
Kd: 2.2 ± 0.2 nM
B1: trivalent p21 peptide (peptide)
chain: KRRQTSMTDFYHSKRRLIFSGGSGGSGGSGGSGGSGGSKRRQTSMTDFYHSKRRLIFSGGSGGSGGSGGSGGSGGSKRRQTSMTDFYHSKRRLIFS

IC50: 1000 nM
Kd: 30 ± 2 nM
B2: divalent p21 peptide (peptide)
chain: KRRQTSMTDFYHSKRRLIFSGGSGGSGGSGGSGGSGGSKRRQTSMTDFYHSKRRLIFS
